{
  "source": "patent US20190345216A1",
  "about": "“SorCS PEPTIDES AND USES THEREOF” (AARHUS UNIVERSITET, priority 2015, published 2019)",
  "key": {"[1]": {"test_system": "Wild type and SorCS2−/− mice", "test": "Marble burying test", "type": "in vivo, mouse", "details": "fluoxetine 20 mg/kg injected 1 hour before, 20 min test", "text": "The SorCS2 knockout mouse has been back-crossed for ten generations into C57/BL6J. Behavioral studies were done with the backcrossed homozygous mice compared to the same C57/BL6J substrain that was used for backcrossing (Glerup, Olsen et al., 2014). In the presented experiments, all mice lines had been backcrossed for ten generations into C57/BL6Jbom (Taconic) and littermate controls were used for experiments. All experiments were approved by the Danish Animal Experiments Inspectorate under the Ministry of Justice (Permit 2011/561-119) and carried according to institutional and national guidelines. All animals were bred and housed at the Animal Facility at Aarhus University. Animals were housed in groups of up to five mice per plastic cage (42×25×15 cm) under pathogen-free conditions with a 12-hour light/12-hour dark schedule and fed standard chow (Altromin #1324) and water ad libitum. Cages were cleaned every week and supplied with bedding and nesting material, a wooden stick, and a metal tunnel. Behavioral experiments were carried out using 12-16 weeks old male mice during their light cycle between 9:00 a.m. to 5:00 p.m. […]\nWild type and SorCS2^−/− mice were injected with either saline only or saline containing 20 mg/ml (20 mg/kg) fluoxetine (trade name Prozac™). […] They were then left for 20 min and hereafter the number of marbles that were more than 50% buried in each cage was counted."}, "SorCS2 [2]": {"test_system": "SorCS2", "test": "Western blot of SorCS2 expression in hippocampus and cortex after fluoxetine", "type": "in vivo, mouse", "details": "wt mice, fluoxetine in water for 3 weeks", "procedure": "3 wild-type mice were given either normal tap water or tap water containing 0.8 mg/ml fluoxetine for 3 weeks with water-chance once a week. Hereafter, the mice were euthanized by cervical dislocation and the hippocampus and cortex was dissected out. The samples were lysed in lysis buffer containing protease and phosphatase inhibitors. The samples were then analysed by Western blotting to see if treatment with fluoxetine can increase SorCS2 levels."}, "hippocampal neurons [3]": {"test_system": "hippocampal neurons", "test": "BDNF induced formation of inhibitory synapses and spine density in vitro", "type": "cell-based, mouse", "details": "1 nM BDNF; for number of glutamatergic synapses/spines: 24 hours; for number of inhibitory synapses: 72 hrs", "method": "For studies on BDNF induced formation of inhibitory synapses, neurons from p0 wild type (wt) and SorCS2^−/− pups were seeded at a density of 100.000 neurons per coverslip. After 7 days in vitro, the medium was changed to medium containing either 1 nM of BDNF or similar volumes of sterile D-PBS. Neurons were incubated for 72 hrs at 37° C. and 5% CO2 before being fixed for 20 min in ice cold 4% PFA. After three 5 min washes in D-PBS, the neurons were stained against gephyrin, an inhibitory marker, and co stained against Map2, a marker of the dendritic tree. Images were taken by confocal microscopy and analysed using Imaris software.\nTo determine spine density in vitro, hippocampal neurons were isolated at PO and grown in culture at a density of 100.000 neurons pr coverslip. After 7 days in vitro the neurons were transfected with a plasmid containing GFP using Lipofectamine LTX reagent (15338-100) using the suppliers protocol. At 13 days in vitro the medium was changed to medium containing either 1 nM or 0 nM BDNF. Hereafter the cells were left in the incubator at 37° C. for 24 hours before being fixed in 4% PFA for 20 minutes at room temperature. To determine spine density, confocal images were obtained and subsequently assessed using Imaris software."}, "hippocampal neurons [4]": {"test_system": "hippocampal neurons", "test": "Dendritic branching of neurons in vitro upon BDNF", "type": "cell-based, mouse", "details": "1 nM BDNF", "method": "(§1) To determine dendritic branching of neurons in vitro, hippocampal neurons were isolated from PO mice and grown in culture at a density of 5000 neurons per coverslip. After 24 hours the medium was changed to medium containing either 1 nM of BDNF or same volume of sterile PBS. Hereafter, the cells were left in the incubator at 37° C. for 72 hours before being fixed in 4% PFA for 20 minutes at room temperature. To determine cell morphology, the neurons were stained against β-tubulin (β-tubulin mouse mAb chemicon MAB3408). Images were taken using a confocal microscope and the branching patterns were analysed using Zen 2011 Image Processing (Carl Zeiss) as follows: The 1st, 2nd, 3rd and 4th order branching patterns the neurons were counted where 1S^t order branches were defined as neurites protruding from the cell soma and were only considered 1st order branches if the branch was longer than the diameter of the soma. 2nd order branches were defined as processes extending from the 1st order branch, and so forth.\nFor studies on BDNF induced morphological changes of GABAergic interneurons, neurons from p3 WT and SorCS2^−/− pups were seeded at a density of 5.000 neurons per coverslip. The WT and SorCS2^−/− neurons were seeded in 1 mL Neurobasal-A Medium containing either 1 nM BDNF or similar volumes of sterile D-PBS. The neurons were incubated for 72 hrs at 37° C. and 5% CO2 before being fixed for 20 min in ice cold 4% PFA. After three 5 min washes in D-PBS, neurons were stained, against mouse anti-β-tubulin and rabbit anti-GABA. Pictures were taken using a confocal microscope and the branching patterns were analysed using Zen 2011 Image Processing (Carl Zeiss) as follows: The 1st, 2nd, 3rd and 4th order branching patterns the neurons were counted where 1st order branches were defined as neurites protruding from the cell soma and were only considered 1st order branches if the branch was longer than the diameter of the soma. 2nd order branches were defined as processes extending from the 1st order branch, and so forth."}, "SorCS2 [5]": {"test_system": "SorCS2", "test": "SorCS2 phosphorylation (32P labelling, immunoprecipitation, autoradiography)", "type": "cell-based, mouse", "details": "wt neurons; 1 nM BDNF 10 minutes vs unstimulated", "method": "For studies on SorCS2 phosphorylation (FIG. 4A), wt neurons were seeded at a density of 2.5 million pr 6-well. After five days in culture, the medium was changed to phosphate-free medium+0.4 mCi/ml of ^32P labelled phosphate and left for 4 hours 37° C. and 5% CO2. Hereafter, the neurons were washed once in phosphate-free medium and medium is added containing 1 nM BDNF or similar volume of sterile PBS. This is left on for 10 minutes before removing the media and adding lysis buffer containing protease- and phosphatase-inhibitors. From the samples, immunoprecipitation was carried out using antibodies against SorCS2. The samples were then analyzed by SDS-gel and subsequent autoradiography to evaluate the phosphorylation of SorCS2."}, "TrkB": {"target": "T1, TrkB (Homo sapiens, UniProt Q16620)", "T1 construct": "expressed in transfected cells; host or cells: hSY5Y cells", "T1 sequence (Q16620 32-822, species assumed)": "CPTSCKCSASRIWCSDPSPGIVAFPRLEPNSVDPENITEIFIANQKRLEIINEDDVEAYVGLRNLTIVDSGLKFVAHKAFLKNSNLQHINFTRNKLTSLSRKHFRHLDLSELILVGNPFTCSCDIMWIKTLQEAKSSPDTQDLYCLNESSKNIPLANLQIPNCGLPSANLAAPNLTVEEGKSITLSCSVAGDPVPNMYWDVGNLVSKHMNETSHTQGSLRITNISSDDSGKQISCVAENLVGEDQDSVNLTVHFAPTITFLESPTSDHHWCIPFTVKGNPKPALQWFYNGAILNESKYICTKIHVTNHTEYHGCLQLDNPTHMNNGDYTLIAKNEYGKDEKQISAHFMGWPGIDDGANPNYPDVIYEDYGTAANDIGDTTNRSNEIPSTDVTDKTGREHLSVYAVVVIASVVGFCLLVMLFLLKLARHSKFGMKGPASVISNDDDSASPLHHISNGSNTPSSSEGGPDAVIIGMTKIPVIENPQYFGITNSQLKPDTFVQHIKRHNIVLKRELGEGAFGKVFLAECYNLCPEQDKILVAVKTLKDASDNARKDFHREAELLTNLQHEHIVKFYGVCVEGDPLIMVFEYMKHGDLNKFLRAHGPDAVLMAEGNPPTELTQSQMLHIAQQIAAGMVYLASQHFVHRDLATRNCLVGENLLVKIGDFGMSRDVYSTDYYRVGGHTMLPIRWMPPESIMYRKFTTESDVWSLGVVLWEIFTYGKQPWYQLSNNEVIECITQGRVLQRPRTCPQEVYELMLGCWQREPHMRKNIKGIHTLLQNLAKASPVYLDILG", "test": "TrkB phosphorylation in transfected hSY5Y cells", "type": "cell-based", "details": "hSY5Y cells with SorCS2 and TrkB compared to only TrkB", "text": "(§2) In FIG. 6 it is shown that SorCS2 is important for phosphorylation of the BDNF-receptor TrkB.hSY5Y cells were transfected with either SorCS2, TrkB or both (FIG. 6, panels A and B). Upon stimulation with BDNF a 2.5 fold increase in phosphorylation of TrkB was seen when SorCS2 was also present, compared to when only TrkB was present (FIG. 6, panel B). […] This indicates a critical role of SorCS2 in mediating the response to BDNF"}, "PLCy": {"test_system": "PLCy", "test": "PLCy phosphorylation in transfected hSY5Y cells", "type": "cell-based", "details": "hSY5Y cells with SorCS2 and TrkB compared to only TrkB", "text": "as §2"}, "SorCS2−/− neurons": {"test_system": "SorCS2−/− neurons", "test": "BDNF-mediated branching of SorCS2−/− neurons transfected with SorCS2 constructs", "type": "cell-based, mouse", "method": "To study the role of SorCS2 in BDNF-mediated branching (FIG. 4B-G), SorCS2^−/− neurons were seeded at a density of 100.000 neurons pr coverslip in media containing the desired SorCS2 mutant together with GFP. After 6 hours, the medium was changed to normal neurobasal A medium containing either 1 nM BDNF or similar volume of sterile PBS. The neurons were incubated for 72 hrs at 37° C. and 5% CO2 before being fixed for 20 min in ice cold 4% PFA, before a three times 5 min washes in D-PBSPictures were taken using a confocal microscope and the branching patterns were analysed using Zen 2011 Image Processing (Carl Zeiss) as follows: The 1st, 2nd, 3rd and 4th order branching patterns of GFPpositive neurons were counted where 1st order branches were defined as neurites protruding from the cell soma and were only considered 1st order branches if the branch was longer than the diameter of the soma. 2nd order branches were defined as processes extending from the 1st order branch, and so forth. […]"}, "wild type neurons": {"test_system": "wild type neurons", "test": "Morphological (neurotrophic) response of wild type neurons to SorCS2 tail peptides", "type": "cell-based, mouse", "details": "wt neurons; 1 nM BDNF", "method": "as §1\nWe next created peptides similar to the intracellular tail of SorCS2. The first peptide had similar sequence to wild type SorCS2 tail except the serines at position 1125, 1128 and 1130, which had been changed to aspartic acids. Furthermore a TAT sequence had been added to facilitate entry into the neurons (FIG. 11), denoted “Ppep”."}},
  "note": "“Also recorded” adds a separate entry of the source.",
  "data": [
    {"molecule": "CNCCC(Oc1ccc(C(F)(F)F)cc1)c1ccccc1", "note": "(stereo not drawn) [fluoxetine]", "values": [
      {"measurement": "number of marbles buried", "setting": "[1]; SorCS2−/− mice", "result": "this effect was not observed; also recorded: this was not the case"},
      {"measurement": "number of marbles buried", "setting": "[1]; wild type mice", "result": "calmed and buried less marbles"},
      {"measurement": "expression of SorCS2 (Western blot)", "setting": "SorCS2 [2]; cortex", "result": "not in the cortex"},
      {"measurement": "expression of SorCS2 (Western blot)", "setting": "SorCS2 [2]; hippocampus", "result": "increase"}
    ]},
    {"molecule": "BDNF: brain-derived neurotrophic factor, ligand of tyrosine kinase receptor TrkB (protein, UniProt P23560 19-247, looked up) Neurotrophic factor BDNF …: APMKEANIRGQGGLAYPGVRTHGTLESVNGPKAGSRGLTSLADTFEHVIEELLDEDQKVRPNEENNKDADLYTSRVMLSSQVPLEPPLLFLLEEYKNYLDAANMSMRVRRHSDPARRGELSVCDSISEWVTAADKKTAVDMSGGTVTVLEKVPVSKGQLKQYFYETKCNPMGYTKEGCRGIDKRHWNSQCRTTQSYVRALTMDSKKRIGWRFIRIDTSCVCTLTIKRGR", "values": [
      {"measurement": "number of glutamatergic synapses/spines", "setting": "hippocampal neurons [3]; neurons lacking SorCS2", "result": "not the case"},
      {"measurement": "number of inhibitory synapses", "setting": "hippocampal neurons [3]; neurons lacking SorCS2", "result": "not the case"},
      {"measurement": "number of glutamatergic synapses/spines", "setting": "hippocampal neurons [3]; wt neurons", "result": "increase"},
      {"measurement": "number of inhibitory synapses", "setting": "hippocampal neurons [3]; wt neurons", "result": "increase"},
      {"measurement": "dendritic complexity (branching)", "setting": "hippocampal neurons [4]; GABAergic interneurons lacking SorCS2, 72 hrs", "result": "non-responsive"},
      {"measurement": "dendritic complexity (branching)", "setting": "hippocampal neurons [4]; glutamatergic neurons lacking SorCS2, 72 hours", "result": "not the case"},
      {"measurement": "dendritic complexity (branching)", "setting": "hippocampal neurons [4]; wt GABAergic interneurons, 72 hrs", "result": "increase in complexity"},
      {"measurement": "dendritic complexity (branching)", "setting": "hippocampal neurons [4]; wt glutamatergic neurons, 72 hours", "result": "increase in complexity"},
      {"measurement": "phosphorylation of SorCS2", "setting": "SorCS2 [5]", "result": "increased phosphorylation"},
      {"measurement": "increase in phosphorylation of TrkB upon BDNF stimulation", "setting": "TrkB", "result": 2.5, "unit": "fold"},
      {"measurement": "phosphorylation of PLCy upon BDNF stimulation", "setting": "PLCy", "result": "significant increase"},
      {"measurement": "neurite branching response to BDNF", "setting": "SorCS2−/− neurons; SorCS2−/− neurons transfected with S1128A variant", "result": "lost"},
      {"measurement": "neurite branching response to BDNF", "setting": "SorCS2−/− neurons; SorCS2−/− neurons transfected with S1130A variant", "result": "lost"},
      {"measurement": "neurite branching response to BDNF", "setting": "SorCS2−/− neurons; SorCS2−/− neurons transfected with full length SorCS2, 1 nM BDNF", "result": "rescues the response; also recorded: able to rescue response"},
      {"measurement": "neurite branching response to BDNF", "setting": "SorCS2−/− neurons; SorCS2−/− neurons transfected with full-length variant S1125A, S1128A and S1130A", "result": "diminished"},
      {"measurement": "neurite branching response to BDNF", "setting": "SorCS2−/− neurons; SorCS2−/− neurons transfected with variant lacking the intracellular domain", "result": "no increase in neurite branching"},
      {"measurement": "neurite branching response to BDNF", "setting": "SorCS2−/− neurons; SorCS2−/− neurons transfected with variant with deletion of 56 amino acids", "result": "lost"},
      {"measurement": "neurite branching response to BDNF", "setting": "SorCS2−/− neurons; SorCS2−/− neurons transfected with variant with deletion of the last 21 amino acids", "result": "still rescued the phenotype"},
      {"measurement": "neurite branching response to BDNF", "setting": "SorCS2−/− neurons; SorCS2−/− neurons transfected with variant with deletion of the last 35 amino acids", "result": "still rescued the phenotype"},
      {"measurement": "complexity of neurons compared to neurons without BDNF (FIG. 13)", "setting": "wild type neurons", "result": "increased in complexity"}
    ]}
  ]
}
